From the RNAGym collection of RNA variant scans (doi:10.1073/pnas.2313332121)
Fewer inactive variants are shown than the library holds.

B1: TPR 5TU (parent)
chain: GGAUCUUCUCGAUCUAACAAAAAAGACAAAUCUGCCACAAAGCUUGAGAGCAUCUUCGGAUGCAGAGGCGGCAGCCUUCGGUGGCGCGAUAGCGCCAACGUUCUCAACUAUGACACGCAAAACGCGUGCUCCGUUGAAUGGAGUUUAUCAUG

Variants of: B1
Experiment: polymerase ribozyme fitness, log enrichment relative to wild type (log ratio); higher = more active; in vitro selection for triplet polymerase activity
How it was run: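 To select mutant libraries of each subunit of a heterodimeric triplet polymerase ribozyme, built by PCR and transcribed, each was annealed with a biotinylated primer, partner subunit and triplets, then incubated frozen at −7 °C. Extended constructs were gel-excised, captured on streptavidin beads and amplified by RT-PCR, in one round carried out in triplicate. Illumina sequencing of input and output libraries kept genotypes with ≥10 input reads and ≥1 read per output. Fitness is the base-2 logarithm of genotype enrichment relative to wild-type enrichment, from inverse-variance-weighted replicate averages.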

**Q.** Which “polymerase ribozyme fitness (log ratio)” value does the source give for C36A U78C G80U C149U here?
**A.** ≤ -4.2

**Q.** For C36A A66C G81A A91C C93U, which “polymerase ribozyme fitness (log ratio)” value is on record?
**A.** ≤ -4.2

**Q.** With C36A C54G C57A G86A U139G as the variant, how does the “polymerase ribozyme fitness (log ratio)” value read?
**A.** ≤ -4.2

**Q.** For C36U U55A A97G A121G U134G, which “polymerase ribozyme fitness (log ratio)” value is on record?
**A.** -3.22

**Q.** For C36A A49C G71U G92A A107G U145C, which “polymerase ribozyme fitness (log ratio)” value is on record?
**A.** ≤ -4.2

**Q.** Which “polymerase ribozyme fitness (log ratio)” value does the source give for A37G G58A G92C G140U here?
**A.** ≤ -4.2

**Q.** With C36A A73U G92U U134G G143U as the variant, how does the “polymerase ribozyme fitness (log ratio)” value read?
**A.** -4.13

**Q.** For C36G G83U C125A G141C U145A, which “polymerase ribozyme fitness (log ratio)” value is on record?
**A.** -4.09

**Q.** Which “polymerase ribozyme fitness (log ratio)” value does the source give for C36A U56G G68C A98G C103A A121U here?
**A.** ≤ -4.2

**Q.** Which “polymerase ribozyme fitness (log ratio)” value does the source give for C35U U44A C54A C87U A110U here?
**A.** ≤ -4.2

**Q.** Which “polymerase ribozyme fitness (log ratio)” value does the source give for A37G A40U C54G A60G here?
**A.** -2.66

**Q.** Which “polymerase ribozyme fitness (log ratio)” value does the source give for C35U G46C C72U G74U C96U A107G here?
**A.** ≤ -4.2

**Q.** With C36U C54A C95G C108U U109C C116U as the variant, how does the “polymerase ribozyme fitness (log ratio)” value read?
**A.** ≤ -4.2

**Q.** For C35U G94A C108A A150U, which “polymerase ribozyme fitness (log ratio)” value is on record?
**A.** ≤ -4.2

**Q.** For A37C U56A U90A C103G A121U C123U G141C, which “polymerase ribozyme fitness (log ratio)” value is on record?
**A.** ≤ -4.2

**Q.** With A37G A39U G58C G62A C63U A64U U77A C87G C103G A150U as the variant, how does the “polymerase ribozyme fitness (log ratio)” value read?
**A.** ≤ -4.2

**Q.** For C36U G92C C116U C118U U144C, which “polymerase ribozyme fitness (log ratio)” value is on record?
**A.** ≤ -4.2

**Q.** For C36U G81A C93G G136A, which “polymerase ribozyme fitness (log ratio)” value is on record?
**A.** ≤ -4.2

**Q.** With C35U G50A C87G G124A as the variant, how does the “polymerase ribozyme fitness (log ratio)” value read?
**A.** -3.99

**Q.** With A37G A39C C87A C116U G136A as the variant, how does the “polymerase ribozyme fitness (log ratio)” value read?
**A.** ≤ -4.2

**Q.** With C36A U56G C85U C93U G94C as the variant, how does the “polymerase ribozyme fitness (log ratio)” value read?
**A.** ≤ -4.2

**Q.** For C35U C93G G141A, which “polymerase ribozyme fitness (log ratio)” value is on record?
**A.** -3.56

**Q.** Which “polymerase ribozyme fitness (log ratio)” value does the source give for C36U U77G A98U U134A here?
**A.** ≤ -4.2

**Q.** For A37G C85U, which “polymerase ribozyme fitness (log ratio)” value is on record?
**A.** -2.1

**Q.** For A37C G70C C87U U127C, which “polymerase ribozyme fitness (log ratio)” value is on record?
**A.** ≤ -4.2

**Q.** For C36A U56A, which “polymerase ribozyme fitness (log ratio)” value is on record?
**A.** -3.62

**Q.** For C36U U102G C108A C116U A122G, which “polymerase ribozyme fitness (log ratio)” value is on record?
**A.** ≤ -4.2

**Q.** With C36A U82A U90G A98C as the variant, how does the “polymerase ribozyme fitness (log ratio)” value read?
**A.** ≤ -4.2

**Q.** For C35U C69U A91G C118A, which “polymerase ribozyme fitness (log ratio)” value is on record?
**A.** -3.8

**Q.** With A37G C54A G141A as the variant, how does the “polymerase ribozyme fitness (log ratio)” value read?
**A.** -2.78

**Q.** For C35U G58A A60C C93G C96U C105U C116U, which “polymerase ribozyme fitness (log ratio)” value is on record?
**A.** ≤ -4.2

**Q.** With A37C A49G C93U as the variant, how does the “polymerase ribozyme fitness (log ratio)” value read?
**A.** -2.86

**Q.** Which “polymerase ribozyme fitness (log ratio)” value does the source give for C36U G62A C72U here?
**A.** -3.23

**Q.** For A37G C54U U55A G86A A89U U109G A138G, which “polymerase ribozyme fitness (log ratio)” value is on record?
**A.** ≤ -4.2

**Q.** With C36A U56A C57A A122G U127C as the variant, how does the “polymerase ribozyme fitness (log ratio)” value read?
**A.** ≤ -4.2

**Q.** For C36G G62C G84U, which “polymerase ribozyme fitness (log ratio)” value is on record?
**A.** ≤ -4.2

**Q.** Which “polymerase ribozyme fitness (log ratio)” value does the source give for C36U C96G here?
**A.** -2.56

**Q.** For C35U U56A C57A A97U C123U U130C, which “polymerase ribozyme fitness (log ratio)” value is on record?
**A.** -0.0554

**Q.** With C36U C38U G83A A121U as the variant, how does the “polymerase ribozyme fitness (log ratio)” value read?
**A.** -1.34

**Q.** With A37C A97U as the variant, how does the “polymerase ribozyme fitness (log ratio)” value read?
**A.** -0.373

**Q.** Which “polymerase ribozyme fitness (log ratio)” value does the source give for C36A A52C C85G A120G A122U U148A here?
**A.** -3.85

**Q.** For A37C G80C G92A C129A, which “polymerase ribozyme fitness (log ratio)” value is on record?
**A.** ≤ -4.2

**Q.** For C35U C43G C93A C103G, which “polymerase ribozyme fitness (log ratio)” value is on record?
**A.** ≤ -4.2

**Q.** Which “polymerase ribozyme fitness (log ratio)” value does the source give for C36U C87U G126A here?
**A.** -2.05

**Q.** With C35U C85A as the variant, how does the “polymerase ribozyme fitness (log ratio)” value read?
**A.** -1.42

**Q.** Which “polymerase ribozyme fitness (log ratio)” value does the source give for C35U C85U here?
**A.** -0.375

**Q.** With C35U C76G A89U A97G as the variant, how does the “polymerase ribozyme fitness (log ratio)” value read?
**A.** ≤ -4.2

**Q.** Which “polymerase ribozyme fitness (log ratio)” value does the source give for A37C G46A U61A G74A C93U A122U here?
**A.** ≤ -4.2

**Q.** Which “polymerase ribozyme fitness (log ratio)” value does the source give for C35U C51U U55C C85A U101C C103A U144A here?
**A.** ≤ -4.2

**Q.** Which “polymerase ribozyme fitness (log ratio)” value does the source give for A37G G84A U101G A120G here?
**A.** -2.6

**Q.** For C36G A97G, which “polymerase ribozyme fitness (log ratio)” value is on record?
**A.** -3.56

**Q.** For C35U G50C C76A C79G C87G A142C G152U, which “polymerase ribozyme fitness (log ratio)” value is on record?
**A.** ≤ -4.2

**Q.** Which “polymerase ribozyme fitness (log ratio)” value does the source give for C35U U53A here?
**A.** -0.557

**Q.** Which “polymerase ribozyme fitness (log ratio)” value does the source give for A37C A60C G67C C76G here?
**A.** -3.82

**Q.** With C36A C75A C87G A106U C149G as the variant, how does the “polymerase ribozyme fitness (log ratio)” value read?
**A.** ≤ -4.2

**Q.** With C36A C79U as the variant, how does the “polymerase ribozyme fitness (log ratio)” value read?
**A.** ≤ -4.2

**Q.** With C36U G59C C131U as the variant, how does the “polymerase ribozyme fitness (log ratio)” value read?
**A.** -0.515

**Q.** For C35U G84C, which “polymerase ribozyme fitness (log ratio)” value is on record?
**A.** -1.94

**Q.** For A37C U55A G133C U144A, which “polymerase ribozyme fitness (log ratio)” value is on record?
**A.** -2.6

**Q.** With C36G U44G G71U C96A C108G G140C as the variant, how does the “polymerase ribozyme fitness (log ratio)” value read?
**A.** ≤ -4.2

**Q.** For A37G G124A, which “polymerase ribozyme fitness (log ratio)” value is on record?
**A.** -2.19

**Q.** With C36A C57G U77C A119G as the variant, how does the “polymerase ribozyme fitness (log ratio)” value read?
**A.** ≤ -4.2

**Q.** With C35U C149U as the variant, how does the “polymerase ribozyme fitness (log ratio)” value read?
**A.** -1.57

**Q.** For A37C C75G G80A C149G, which “polymerase ribozyme fitness (log ratio)” value is on record?
**A.** ≤ -4.2

**Q.** For C35U G62A G83U G86C C125G A142U, which “polymerase ribozyme fitness (log ratio)” value is on record?
**A.** ≤ -4.2

**Q.** For A37C G83A A122U C131U U134C, which “polymerase ribozyme fitness (log ratio)” value is on record?
**A.** 0.318

**Q.** For A37C C116G, which “polymerase ribozyme fitness (log ratio)” value is on record?
**A.** -0.143

**Q.** Which “polymerase ribozyme fitness (log ratio)” value does the source give for C35U G50C here?
**A.** -3.9

**Q.** Which “polymerase ribozyme fitness (log ratio)” value does the source give for C36A C96A G133A here?
**A.** ≤ -4.2

**Q.** For A37C U77C G92A C96A U139C, which “polymerase ribozyme fitness (log ratio)” value is on record?
**A.** ≤ -4.2

**Q.** For C35U C95U A107C U109A A115U, which “polymerase ribozyme fitness (log ratio)” value is on record?
**A.** ≤ -4.2

**Q.** With A37C G83U C93G A97G G100U as the variant, how does the “polymerase ribozyme fitness (log ratio)” value read?
**A.** ≤ -4.2

**Q.** Which “polymerase ribozyme fitness (log ratio)” value does the source give for A37C A40C A66U C75G G94U A120G C131G G141A here?
**A.** ≤ -4.2

**Q.** Which “polymerase ribozyme fitness (log ratio)” value does the source give for A37G A52G U55A U56A C85U C103U U145A here?
**A.** -3.09

**Q.** With A37C A49C G59C G83C C95A A122U G143U A150G as the variant, how does the “polymerase ribozyme fitness (log ratio)” value read?
**A.** ≤ -4.2

**Q.** For A37G U45A C76G U82G C93G A113C G136U, which “polymerase ribozyme fitness (log ratio)” value is on record?
**A.** ≤ -4.2

**Q.** With C36A G48U C54G C57A C72A A91C as the variant, how does the “polymerase ribozyme fitness (log ratio)” value read?
**A.** ≤ -4.2

**Q.** For C36U C72U, which “polymerase ribozyme fitness (log ratio)” value is on record?
**A.** -0.573

**Q.** With C36U A66G G112A A142U as the variant, how does the “polymerase ribozyme fitness (log ratio)” value read?
**A.** ≤ -4.2

**Q.** With C36U A60C C63U C103G as the variant, how does the “polymerase ribozyme fitness (log ratio)” value read?
**A.** ≤ -4.2

**Q.** For A37C C95A A138C G141C, which “polymerase ribozyme fitness (log ratio)” value is on record?
**A.** ≤ -4.2

**Q.** For C36A C75U C95A C129G, which “polymerase ribozyme fitness (log ratio)” value is on record?
**A.** ≤ -4.2

**Q.** Which “polymerase ribozyme fitness (log ratio)” value does the source give for C36G C95U here?
**A.** -3.45

**Q.** Which “polymerase ribozyme fitness (log ratio)” value does the source give for A37C C96U G100C U102C C118G C131G here?
**A.** ≤ -4.2
